From paper PMC10244175, “Seeding the aggregation of TDP-43 requires post-fibrillization proteolytic cleavage” (Nature Neuroscience, 2023)

Target: the molecule itself
Test: cryo-EM structure; fibrils of recombinant CP (279–360); helical reconstruction in RELION; two populations (one protofilament 4.1 Å, two protofilaments 3.7 Å); model built for G281-G351

B1: TDP-43 (279–360) core peptide (domain or fragment, UniProt Q13148 279-360, looked up)
chain: NPGGFGNQGGFGNSRGGGAGLGNNQGSNMGGGMNFGAFSINPAMMAAAQAALQSSWGMMGMLASQQNQSGPSGNNQNQGNMQ
notes: TDP-43 residues 279-360 (82 amino acids), part of the C-terminal domain; printed theoretical mass 8041.7 Da; the atomic model PDB 7Q3U covers G281-G351; The fusion is written as His6-Sumo-TDP-43 (279–360) CP; the tag is removed by Ulp-1; also called CP; CP (279–360); source: E. coli ER2566, purified (Ni-NTA, Ulp-1 cleavage, reverse-phase HPLC C18), lyophilized; fibrils formed at 50 µM in …
binding result: binds
